Data taken from doi:10.1101/2024.07.30.605722 (bioRxiv, 2024).

B1: PDIA6 (enzyme, human, UniProt Q15084 20-440, looked up)
chain: LYSSSDDVIELTPSNFNREVIQSDSLWLVEFYAPWCGHCQRLTPEWKKAATALKDVVKVGAVDADKHHSLGGQYGVQGFPTIKIFGSNKNRPEDYQGGRTGEAIVDAALSALRQLVKDRLGGRSGGYSSGKQGRSDSSSKKDVIELTDDSFDKNVLDSEDVWMVEFYAPWCGHCKNLEPEWAAAASEVKEQTKGKVKLAAVDATVNQVLASRYGIRGFPTIKIFQKGESPVDYDGGRTRSDIVSRALDLFSDNAPPPELLEIINEDIAKRTCEEHQLCVVAVLPHILDTGAAGRNSYLEVLLKLADKYKKKMWGWLWTEAGAQSELETALGIGGFGYPAMAAINARKMKFALLKGSFSEQGINEFLRELSFGRGSTAPVGGGAFPTIVEREPWDGRDGELPVEDDIDLSDVELDDLGKDEL

Legend:
[1] = biological target: PDIA6 a^0 domain (human); experiment: co-sedimentation
[2] = biological target: the molecule itself; experiment: native MS

| Molecule | b amount left in the supernatant [1] | stoichiometry N [2] |
| --- | --- | --- |
| MBP fusion protein of PDIA6 b domain (domain or fragment) | 60% |  |
| B1 |  | 2 |
